Reference: patent publication US9206432B2, “Sulfonylurea-responsive repressor proteins” (priority 2008, dated 2015)

B1: L1-7: SU-responsive TetR(B) variant, library L1 hit, SEQ ID NO: 4 (protein)
chain: MGSRLDKSKVINSALELLNEVGIEGLTTRKLAQKLGVEQPTLYWHVKNKRALLDALAIEMLDRHNTHFCPLEGESWQDFLRNNAKSWRCALLSHRDGAKVVLGTAITEKQYETHENPLAFLCQQGFSLENALYAIAAVRRFTLGCVLVDQERQVAKEERETPTTDSMPPLLRQASELQDHQGAEPAFLFGLELIICGLEKQLKCERGS
modifications: Sulfonylurea responsive repressor L1-07
B2: L1-20: SU-responsive TetR(B) variant, library L1 hit, SEQ ID NO: 6 (protein)
chain: MGSRLDKSKVINSALELLNEVGIEGLTTRKLAQKLGVEQPTLYWHVKNKRALLDALAIEMMDRHQTHFCPLEGESWQDFLRNNAKSMRCALLSHRDGAKVFLGTAWTEKQYETVENLLAFLCQQGFSLENALYALNAVATFTLGCVLWDQEKQVAKEERETPTTDSMPPLLRQAHELGDHQGAEPAFLFGLELIICGLEKQLKSESGS
modifications: Sulfonylurea responsive repressor L1-20
B3: L1-36: library L1 hit with reverse repressor activity (SEQ ID NO: 1206-1213) (protein)
chain: MGSRLDKSKVINSALELLNEVGIEGLTTRKLAQKLGVEQPTLYWHVKNKRALLDALAIEMADRHHTHFCPLEGESWQDFLRNAAKSMRCALLSHRDGAKVRLGTAWTEKQYETHENVLAFLCQQGFSLENALYALKAVSGFTLGCVLKDQEMQVAKEERETPTTDSMPPLLRQATELVDHQGAEPAFLFGLELIICGLEKQLKCESGS
modifications: rSuR L1-36
B4: L1-39: library L1 hit with reverse repressor activity (SEQ ID NO: 1206-1213) (protein)
chain: MGSRLDKSKVINSALELLNEVGIEGLTTRKLAQKLGVEQPTLYWHVKNKRALLDALAIEMMDRHQTHFCPLEGESWQDFLRNTAKSYRCALLSHRDGAKVILGTRWTEKQYETRENVLAFLCQQGFSLENALYAWAAVGPFTLGCVLRDQERQVAKEERETPTTDSMPPLLRQALELMDHQGAEPAFLFGLELIICGLEKQLKCESGS
modifications: rSuR L1-39
B5: L1-25: library L1 hit with reverse repressor activity (SEQ ID NO: 1206-1213) (protein)
chain: MGSRLDKSKVINSALELLNEVGIEGLTTRKLAQKLGVEQPTLYWHVKNKRALLDALAIEMLDRHATHFCPLEGESWQDFLRNTAKSMRCALLSHRDGAKVLLGTATTEKQYETLENLLAFLYQQGFSLENALYAWQAVWRFTLGCVLIDQETQVAKEERETPTTDSMPPLLRQAVELKDHQGAEPAFLFGLELIICGLEKQLKCETGS
modifications: rSuR L1-25
B6: L1-41: library L1 hit with reverse repressor activity (SEQ ID NO: 1206-1213) (protein)
chain: MGSRLDKSKVINSALELLNEVGIEGLTTRKLAQKLGVEQPTLYWHVKNKRALLDALAIEMLDRNQTHFCPLEGESWQDFLRNNAKSWRCALLSHRDGAKVMLGTRNTEKQYETAENGLAFLCQQGFSLENALYACRAVWTFTLGCVLDDQETQVAKEERETPTSDSMPPLLRQAMELKDHQGAEPAFLFGLELIICGLEKQLKCESGS
modifications: rSuR L1-41
B7: L1-18: library L1 hit with reverse repressor activity (SEQ ID NO: 1206-1213) (protein)
chain: MGSRLDKSKVINSALELLNEVGIEGLTTRKLAQKLGVEQPTLYWHVKNKRALLDALAIEMLDRHLTHFCPLEGESWQDFLRNNAKSMRCALLSHRDGAKVWLGTGFTEKQYETKENRLAFLCQQGFSLENALYAIRAVSRFTLGCVLQDQEPQVAKEERETPTTDSMPPLLRQAVELFDHQGAEPAFLFGLELIICGLEKQLKCESES
modifications: rSuR L1-18
B8: L1-33: library L1 hit with reverse repressor activity (SEQ ID NO: 1206-1213) (protein)
chain: MGSRLDKSKVINSALELLNEVGIEGLTTRKLAQKLGVEQPTLYWHVKNKRALLDALAIEMLDRHATHFCPLEGESWQDFLRNNAKSMRCALLSHRDGAKVQLGTAATEKQYETLENKLAFLCQQGFSLENALYAHSAVTQFTLGCVLRDQEGQVAKEERETPTTDSMPPLLRQARELRDHQGAEPAFLFGLELIICGLEKQLKCESGS
modifications: rSuR L1-33
B9: L1-21: library L1 hit with reverse repressor activity (SEQ ID NO: 1206-1213) (protein)
chain: MGSRLDKSKVINSALELLNEVGIEGLTTRKLAQKLGVEQPTLYWHVKNKRALLDALAIEMLDRHATHFCPLEGESWQDFLRNNAKSFRCALLSHRDGAKVCLGTAGTEKQYETLENCLAFLCQQGFSLENALYARSAVVCFTLGCVLFDQEMQVAKEERETPTTDSMPPLLRQAAELLDHQGAEPAFLFGLELIICGLEKQLKCESGS
modifications: rSuR L1-21

system: lacZ under control of the tetA promoter (PtetA) in E. coli KM3; format: cell-based; details: Table 4; chlorimuron 20 ppm; 48 hrs at 30° C.

First: B1
Second: B2
The “relative β-galactosidase activity, inducer Ci” value of the first is higher: 16.5 for the first, 13.5 for the second.

same assay, conditions: Table 4; chlorsulfuron 20 ppm; 48 hrs at 30° C.

Going from B1 to B2, the “relative β-galactosidase activity, inducer Cs” value rises from 3.1 to 22.0.

same assay, conditions: Table 4; ethametsulfuron 20 ppm; 48 hrs at 30° C.

Going from B1 to B2, the “relative β-galactosidase activity, inducer Es” value rises from 0.1 to 15.0.

same assay, conditions: Table 4; metsulfuron 20 ppm; 48 hrs at 30° C.

Going from B1 to B2, the “relative β-galactosidase activity, inducer Ms” value rises from 0.2 to 12.4.

same assay, conditions: Table 4; nicosulfuron 20 ppm; 48 hrs at 30° C.

Compared with B1, B2 is higher in “relative β-galactosidase activity, inducer Ns” value: 0.1 for the first, 1.6 for the second.

same assay, conditions: Table 4; rimsulfuron 20 ppm; 48 hrs at 30° C.

First: B1
Second: B2
The “relative β-galactosidase activity, inducer Rs” value of the first is lower: 0.2 for the first, 2.0 for the second.

same assay, conditions: Table 4; sulfometuron 20 ppm; 48 hrs at 30° C.

First: B1
Second: B2
The “relative β-galactosidase activity, inducer Sm” value of the first is higher: 6.4 for the first, 6.0 for the second.

same assay, conditions: Table 4; thifensulfuron 20 ppm; 48 hrs at 30° C.

Going from B1 to B2, the “relative β-galactosidase activity, inducer Ts” value rises from 0.1 to 2.6.

same assay, conditions: Table 4; tribenuron 20 ppm; 48 hrs at 30° C.

First: B1
Second: B2
The “relative β-galactosidase activity, inducer Tb” value of the first is lower: 0.2 for the first, 2.6 for the second.

same assay, conditions: Table 6, reverse repressor hits; anhydrotetracycline (0.4 μM)

First: B3
Second: B4
The “relative β-galactosidase activity, inducer atc” value of the first is lower: 1.70 for the first, 4.92 for the second.

First: B5
Second: B6
The “relative β-galactosidase activity, inducer atc” value of the first is lower: 1.22 for the first, 4.21 for the second.

First: B7
Second: B8
The “relative β-galactosidase activity, inducer atc” value of the first is lower: 2.35 for the first, 8.25 for the second.

In the case of B9, the “relative β-galactosidase activity, inducer atc” value is reported as 2.81.

same assay, conditions: Table 6, reverse repressor hits; chlorimuron, same plate assay format (20 ppm)

Going from B3 to B4, the “relative β-galactosidase activity, inducer Ci” value rises from 0.21 to 0.49.

Going from B5 to B6, the “relative β-galactosidase activity, inducer Ci” value rises from 0.11 to 0.39.

First: B7
Second: B8
The “relative β-galactosidase activity, inducer Ci” value of the first is lower: 0.36 for the first, 0.76 for the second.

With B9 the “relative β-galactosidase activity, inducer Ci” value was 0.07.

same assay, conditions: Table 6, reverse repressor hits; chlorsulfuron, same plate assay format (20 ppm)

First: B3
Second: B4
The “relative β-galactosidase activity, inducer Cs” value of the first is lower: 0.24 for the first, 0.89 for the second.

Compared with B5, B6 is higher in “relative β-galactosidase activity, inducer Cs” value: 0.28 for the first, 0.61 for the second.

Compared with B7, B8 is higher in “relative β-galactosidase activity, inducer Cs” value: 1.22 for the first, 3.74 for the second.

With B9 the “relative β-galactosidase activity, inducer Cs” value was 0.89.

same assay, conditions: Table 6, reverse repressor hits; ethametsulfuron, same plate assay format (20 ppm)

Going from B3 to B4, the “relative β-galactosidase activity, inducer Es” value rises from 0.20 to 0.60.

Compared with B5, B6 is higher in “relative β-galactosidase activity, inducer Es” value: 0.13 for the first, 0.18 for the second.

Compared with B7, B8 is higher in “relative β-galactosidase activity, inducer Es” value: 0.37 for the first, 2.11 for the second.

For B9, the “relative β-galactosidase activity, inducer Es” value was 0.61.

same assay, conditions: Table 6, reverse repressor hits; metsulfuron, same plate assay format (20 ppm)

Going from B3 to B4, the “relative β-galactosidase activity, inducer Ms” value rises from 0.38 to 0.75.

Going from B5 to B6, the “relative β-galactosidase activity, inducer Ms” value rises from 0.32 to 0.56.

First: B7
Second: B8
The “relative β-galactosidase activity, inducer Ms” value of the first is lower: 0.79 for the first, 4.29 for the second.

With B9 the “relative β-galactosidase activity, inducer Ms” value was 0.89.

same assay, conditions: Table 6, reverse repressor hits; nicosulfuron, same plate assay format (20 ppm)

Compared with B3, B4 is higher in “relative β-galactosidase activity, inducer Ns” value: 1.81 for the first, 3.03 for the second.

First: B5
Second: B6
The “relative β-galactosidase activity, inducer Ns” value of the first is lower: 1.21 for the first, 2.75 for the second.

First: B7
Second: B8
The “relative β-galactosidase activity, inducer Ns” value of the first is lower: 1.44 for the first, 5.34 for the second.

With B9 the “relative β-galactosidase activity, inducer Ns” value was 2.74.

same assay, conditions: Table 6, reverse repressor hits; rimsulfuron, same plate assay format (20 ppm)

Compared with B3, B4 is higher in “relative β-galactosidase activity, inducer Rs” value: 1.84 for the first, 4.72 for the second.

First: B5
Second: B6
The “relative β-galactosidase activity, inducer Rs” value of the first is lower: 1.08 for the first, 4.05 for the second.

Compared with B7, B8 is higher in “relative β-galactosidase activity, inducer Rs” value: 2.55 for the first, 10.32 for the second.

For B9, the “relative β-galactosidase activity, inducer Rs” value was 2.31.

same assay, conditions: Table 6, reverse repressor hits; sulfometuron, same plate assay format (20 ppm)

Compared with B3, B4 is higher in “relative β-galactosidase activity, inducer Sm” value: 0.50 for the first, 0.91 for the second.

Going from B5 to B6, the “relative β-galactosidase activity, inducer Sm” value rises from 0.63 to 0.67.

First: B7
Second: B8
The “relative β-galactosidase activity, inducer Sm” value of the first is lower: 0.94 for the first, 5.02 for the second.

In the case of B9, the “relative β-galactosidase activity, inducer Sm” value is reported as 2.39.

same assay, conditions: Table 6, reverse repressor hits; thifensulfuron, same plate assay format (20 ppm)

Going from B3 to B4, the “relative β-galactosidase activity, inducer Ts” value rises from 0.48 to 1.42.

First: B5
Second: B6
The “relative β-galactosidase activity, inducer Ts” value of the first is lower: 0.64 for the first, 1.46 for the second.

Compared with B7, B8 is higher in “relative β-galactosidase activity, inducer Ts” value: 1.13 for the first, 5.51 for the second.

For B9, the “relative β-galactosidase activity, inducer Ts” value was 0.79.

same assay, conditions: Table 6, reverse repressor hits; tribenuron, same plate assay format (20 ppm)

First: B3
Second: B4
The “relative β-galactosidase activity, inducer Tb” value of the first is lower: 0.57 for the first, 0.97 for the second.

Compared with B5, B6 is lower in “relative β-galactosidase activity, inducer Tb” value: 1.72 for the first, 1.41 for the second.

Going from B7 to B8, the “relative β-galactosidase activity, inducer Tb” value rises from 1.65 to 4.71.

For B9, the “relative β-galactosidase activity, inducer Tb” value was 2.13.
